Results reported in the supplement of paper PMC10567573.

B1: FADS1 (parent)
chain: LNFQIEHHLFPTMPRHNYHKVAPL

Variants of: B1
Test: protein stability index of a GFP-peptide fusion (GPS, HEK-293T) (PSI 1-6); higher = more stable
Conditions: c terminus: a fixed tail appended
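Also: lentivirally expressed fusions sorted by FACS into six bins by GFP to DsRed ratio, PSI derived from sequencing read proportions per bin multiplied by bin number.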

Variant	protein stability index
N17R	2.48
N17Q	2.33
N17F	2.83
N17M	1.58
N17L	3.08
N17G	1.27
N17V	1.43
N17S	2.02
N17E	2.35
N17W	2.84
N17K	1.27
N17A	1.98
N17P	2.71
N17T	2.19
N17I	1.5
N17H	1.81
N17Y	2.39
N17D	2.28
N17C	3.44
V21A	1.32
V21H	1.92
V21F	2.85
V21I	3.07
V21P	2.39

Variant	protein stability index
V21C	2.38
V21M	2.5
V21W	2.14
V21S	1.98
V21K	1.83
V21R	1.7
V21E	2.32
V21T	2.23
V21Y	1.94
V21G	2.38
V21Q	1.46
V21L	2.24
V21D	2.41
V21N	1.58
L24C	2.52
L24I	3.69
L24D	2.03
L24F	2.15
L24G	2.35
L24A	1.71
L24H	2.27
L24E	2.33
Y18D	1.44
Y18F	2.72

Variant	protein stability index
Y18T	2.27
Y18P	2.99
Y18W	2.78
Y18R	1.64
Y18N	1.81
Y18V	1.51
Y18E	2.65
Y18I	2.23
Y18L	1.69
Y18H	1.6
Y18M	2.18
Y18G	1.81
Y18K	2.25
Y18C	2.42
Y18Q	2.17
Y18S	1.69
Y18A	2.95
H19F	1.81
H19P	3.38
H19G	3.11
H19S	2.35
H19L	1.54
H19R	1.88
H19E	2.25

Variant	protein stability index
H19N	2.27
H19Q	2
H19D	3.43
H19K	2.3
H19A	2.85
H19V	2.8
H19Y	2.58
H19W	3.52
H19I	3.24
H19M	3.8
P14Y	3.17
P14V	2.38
R15Q	1.33
R15D	1.98
R15C	3.14
R15A	3.26
R15F	2.68
R15N	2.43
R15K	2.35
R15V	2.01
R15W	2.99
R15I	2.88
R15Y	3.31
R15E	1.81

Variant	protein stability index
R15G	3.15
R15H	1.84
R15L	2.42
R15T	2.55
R15S	2.95
A22F	1.78
A22K	1.89
A22C	1.65
A22V	2.82
A22D	1.92
A22Y	2.21
A22Q	2.06
A22T	2.09
A22H	1.89
A22W	2.34
A22R	1.99
A22M	3.28
A22E	1.85
A22S	2.91
A22I	3.37
A22G	1.05
A22P	2.1
A22N	1.69
A22L	2.05

Variant	protein stability index
P23K	1.54
P23A	2.81
P23L	2.4
P23R	1.69
P23C	1.88
P23G	2.97
P23S	1.88
P23W	2.27
P23Q	2.63
P23Y	1.79
P23E	2.21
P23N	2.09
P23D	1.33
P23M	2.06
P23I	2.42
H16V	2.36
H16K	1.22
H16E	2.52
H16D	3.61
H16M	4.22
H16L	1.96
H16Y	3.52
H16T	1.77
H16G	1.24

Variant	protein stability index
H16P	2.19
H16F	2.12
H16C	3.19
H16R	2.13
H16I	2.46
H16N	2.2
H16S	1.28
K20N	2.58
K20M	2.3
K20I	2.65
K20V	1.2
K20L	3.03
K20D	2.29
K20Q	3.36
K20Y	3.23
K20T	1.79
K20A	1.9
K20R	2.76
K20E	1.94
K20C	2.2
K20H	1.46
K20P	2.71
K20G	1.99
